US20200353049A1

Columns and labels:
[1] = target: IL-22R1a extracellular domain (ECD) (UniProt Q8N6P7); test: binding ELISA on plate-coated IL-22R1a ECD, relative to Reference Standard (100%); T=0
[2] = target: IL-22R1a extracellular domain (ECD) (UniProt Q8N6P7); test: as above; remark: listed apart in the source
[3] = target: IL-22R1a extracellular domain (ECD) (UniProt Q8N6P7); test: potency assay (binding ELISA on plate-coated IL-22R1a ECD), relative to reference standard (100%); T=0
[4] = target: IL-22R1a extracellular domain (ECD) (UniProt Q8N6P7); test: binding ELISA on plate-coated IL-22R1a ECD, relative to Reference Standard (100%); stored 5 C, 2 months
[5] = target: IL-22R1a extracellular domain (ECD) (UniProt Q8N6P7); test: binding ELISA on plate-coated IL-22R1a ECD, relative to Reference Standard (100%); stored 5 C, 6 months
[6] = target: IL-22R1a extracellular domain (ECD) (UniProt Q8N6P7); test: as above; remark: listed apart in the source
[7] = target: IL-22R1a extracellular domain (ECD) (UniProt Q8N6P7); test: binding ELISA on plate-coated IL-22R1a ECD, relative to Reference Standard (100%); stored -20 C, 6 months
[8] = target: IL-22R1a extracellular domain (ECD) (UniProt Q8N6P7); test: binding ELISA on plate-coated IL-22R1a ECD, relative to Reference Standard (100%); stored -20 C, 9 months
[9] = target: IL-22R1a extracellular domain (ECD) (UniProt Q8N6P7); test: binding ELISA on plate-coated IL-22R1a ECD, relative to Reference Standard (100%); stored -20 C, 3 months
[10] = target: IL-22R1a extracellular domain (ECD) (UniProt Q8N6P7); test: binding ELISA on plate-coated IL-22R1a ECD, relative to Reference Standard (100%); stored -20 C, 12 months
[11] = target: IL-22R1a extracellular domain (ECD) (UniProt Q8N6P7); test: binding ELISA on plate-coated IL-22R1a ECD, relative to Reference Standard (100%); stored -20 C, 24 months
[12] = target: IL-22R1a extracellular domain (ECD) (UniProt Q8N6P7); test: binding ELISA on plate-coated IL-22R1a ECD, relative to Reference Standard (100%); stored -20 C, 48 months
[13] = target: IL-22R1a extracellular domain (ECD) (UniProt Q8N6P7); test: binding ELISA on plate-coated IL-22R1a ECD, relative to Reference Standard (100%); stored -20 C, 24 months; remark: listed apart in the source
[14] = target: IL-22R1a extracellular domain (ECD) (UniProt Q8N6P7); test: binding ELISA on plate-coated IL-22R1a ECD, relative to Reference Standard (100%); stored -20 C, 60 months
[15] = target: IL-22R1a extracellular domain (ECD) (UniProt Q8N6P7); test: binding ELISA on plate-coated IL-22R1a ECD, relative to Reference Standard; pH 7.0 formulation stored 4 weeks at 30 C
[16] = target: IL-22R1a extracellular domain (ECD) (UniProt Q8N6P7); test: potency assay (binding ELISA on plate-coated IL-22R1a ECD), relative to reference standard (100%); stored 25 C, 1 month
[17] = target: IL-22R1a extracellular domain (ECD) (UniProt Q8N6P7); test: potency assay (binding ELISA on plate-coated IL-22R1a ECD), relative to reference standard (100%); stored 5 C, 3 months
[18] = target: IL-22R1a extracellular domain (ECD) (UniProt Q8N6P7); test: potency assay (binding ELISA on plate-coated IL-22R1a ECD), relative to reference standard (100%); stored 5 C, 6 months
[19] = target: IL-22R1a extracellular domain (ECD) (UniProt Q8N6P7); test: potency assay (binding ELISA on plate-coated IL-22R1a ECD), relative to reference standard (100%); stored 25 C, 2 months
[20] = target: IL-22R1a extracellular domain (ECD) (UniProt Q8N6P7); test: potency assay (binding ELISA on plate-coated IL-22R1a ECD), relative to reference standard (100%); stored 25 C, 6 months
[21] = target: IL-22R1a extracellular domain (ECD) (UniProt Q8N6P7); test: potency assay (binding ELISA on plate-coated IL-22R1a ECD), relative to reference standard (100%); stored 5 C, 18 months
[22] = target: IL-22R1a extracellular domain (ECD) (UniProt Q8N6P7); test: potency assay (binding ELISA on plate-coated IL-22R1a ECD), relative to reference standard (100%); stored 5 C, 30 months
[23] = target: IL-22R1a extracellular domain (ECD) (UniProt Q8N6P7); test: potency assay (binding ELISA on plate-coated IL-22R1a ECD), relative to reference standard (100%); stored 5 C, 36 months
[24] = target: IL-22R1a extracellular domain (ECD) (UniProt Q8N6P7); test: potency assay (binding ELISA on plate-coated IL-22R1a ECD), relative to reference standard (100%); stored 5 C, 42 months
[25] = target: IL-22R1a extracellular domain (ECD) (UniProt Q8N6P7); test: potency assay (binding ELISA on plate-coated IL-22R1a ECD), relative to reference standard (100%); stored 5 C, 48 months
[26] = target: IL-22R1a extracellular domain (ECD) (UniProt Q8N6P7); test: potency assay (binding ELISA on plate-coated IL-22R1a ECD), relative to reference standard (100%); stored 25 C, 6 months; remark: listed apart in the source
[27] = target: IL-22R1a extracellular domain (ECD) (UniProt Q8N6P7); test: potency assay (binding ELISA on plate-coated IL-22R1a ECD), relative to reference standard (100%); stored 5 C, 42 months; remark: listed apart in the source
[28] = target: IL-22R1a extracellular domain (ECD) (UniProt Q8N6P7); test: potency assay (binding ELISA on plate-coated IL-22R1a ECD); change after 2 weeks at 40 C; this end matches Clinical Batch 3 in Table 26 (85 to 57)

Chain of UniProt Q8N6P7 (Q8N6P7 16-228 limits assumed): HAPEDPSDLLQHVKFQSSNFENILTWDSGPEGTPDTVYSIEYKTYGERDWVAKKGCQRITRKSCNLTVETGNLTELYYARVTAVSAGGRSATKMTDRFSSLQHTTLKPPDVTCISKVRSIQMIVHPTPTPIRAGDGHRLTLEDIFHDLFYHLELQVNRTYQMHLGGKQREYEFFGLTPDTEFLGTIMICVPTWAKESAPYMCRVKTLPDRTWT

How did the Potency by Binding Assay (% relative potency) (% relative potency) [1] turn out when IL-22 Fc fusion protein was run?
The Potency by Binding Assay (% relative potency) (% relative potency) was 71.

What about the Potency by Binding Assay (% relative potency) (% relative potency) [2] of the same substance?
The Potency by Binding Assay (% relative potency) (% relative potency) was 108.

And the Potency (% relative potency) (% relative potency) [3]?
The Potency (% relative potency) (% relative potency) was 101.

What about the Potency by Binding Assay (% relative potency) (% relative potency) [4] of the same substance?
The Potency by Binding Assay (% relative potency) (% relative potency) was 75.

And the Potency by Binding Assay (% relative potency) (% relative potency) [5]?
Its Potency by Binding Assay (% relative potency) (% relative potency) is 71.

And the Potency by Binding Assay (% relative potency) (% relative potency) [6]?
The Potency by Binding Assay (% relative potency) (% relative potency) was 98.

And the Potency by Binding Assay (% relative potency) (% relative potency) [7]?
The Potency by Binding Assay (% relative potency) (% relative potency) was 73.

What about the Potency by Binding Assay (% relative potency) (% relative potency) [8] of the same substance?
The Potency by Binding Assay (% relative potency) (% relative potency) was 68.

What about the Potency by Binding Assay (% relative potency) (% relative potency) [9] of the same substance?
The Potency by Binding Assay (% relative potency) (% relative potency) was 104.

What about the Potency by Binding Assay (% relative potency) (% relative potency) [10] of the same substance?
The Potency by Binding Assay (% relative potency) (% relative potency) was 69.

And the Potency by Binding Assay (% relative potency) (% relative potency) [11]?
Its Potency by Binding Assay (% relative potency) (% relative potency) is 70.

What about the Potency by Binding Assay (% relative potency) (% relative potency) [12] of the same substance?
Its Potency by Binding Assay (% relative potency) (% relative potency) is 72.

What about the Potency by Binding Assay (% relative potency) (% relative potency) [13] of the same substance?
Its Potency by Binding Assay (% relative potency) (% relative potency) is 97.

And the Potency by Binding Assay (% relative potency) (% relative potency) [14]?
Its Potency by Binding Assay (% relative potency) (% relative potency) is 99.

And the Estimated % relative potency (n = 2) (% relative potency) [15]?
Its Estimated % relative potency (n = 2) (% relative potency) is 79.

What about the Potency (% relative potency) (% relative potency) [16] of the same substance?
The Potency (% relative potency) (% relative potency) was 68.

What about the Potency (% relative potency) (% relative potency) [17] of the same substance?
The Potency (% relative potency) (% relative potency) was 73.

And the Potency (% relative potency) (% relative potency) [18]?
Its Potency (% relative potency) (% relative potency) is 64.

And the Potency (% relative potency) (% relative potency) [19]?
Its Potency (% relative potency) (% relative potency) is 60.

And the Potency (% relative potency) (% relative potency) [20]?
Its Potency (% relative potency) (% relative potency) is 47.

And the Potency (% relative potency) (% relative potency) [21]?
The Potency (% relative potency) (% relative potency) was 64.

What about the Potency (% relative potency) (% relative potency) [22] of the same substance?
Its Potency (% relative potency) (% relative potency) is 65.

And the Potency (% relative potency) (% relative potency) [23]?
Its Potency (% relative potency) (% relative potency) is 67.

And the Potency (% relative potency) (% relative potency) [24]?
The Potency (% relative potency) (% relative potency) was 59.

And the Potency (% relative potency) (% relative potency) [25]?
The Potency (% relative potency) (% relative potency) was 65.

What about the Potency (% relative potency) (% relative potency) [26] of the same substance?
Its Potency (% relative potency) (% relative potency) is 72.

What about the Potency (% relative potency) (% relative potency) [27] of the same substance?
The Potency (% relative potency) (% relative potency) was 87.

And the decrease in % relative potency (% relative potency) [28]?
The decrease in % relative potency (% relative potency) was 28.
